T1: EsCas13d, nuclease-dead (Eubacterium siraeum, UniProt B0MS50, R295A;H300A;R849A;H854A)
T1 sequence: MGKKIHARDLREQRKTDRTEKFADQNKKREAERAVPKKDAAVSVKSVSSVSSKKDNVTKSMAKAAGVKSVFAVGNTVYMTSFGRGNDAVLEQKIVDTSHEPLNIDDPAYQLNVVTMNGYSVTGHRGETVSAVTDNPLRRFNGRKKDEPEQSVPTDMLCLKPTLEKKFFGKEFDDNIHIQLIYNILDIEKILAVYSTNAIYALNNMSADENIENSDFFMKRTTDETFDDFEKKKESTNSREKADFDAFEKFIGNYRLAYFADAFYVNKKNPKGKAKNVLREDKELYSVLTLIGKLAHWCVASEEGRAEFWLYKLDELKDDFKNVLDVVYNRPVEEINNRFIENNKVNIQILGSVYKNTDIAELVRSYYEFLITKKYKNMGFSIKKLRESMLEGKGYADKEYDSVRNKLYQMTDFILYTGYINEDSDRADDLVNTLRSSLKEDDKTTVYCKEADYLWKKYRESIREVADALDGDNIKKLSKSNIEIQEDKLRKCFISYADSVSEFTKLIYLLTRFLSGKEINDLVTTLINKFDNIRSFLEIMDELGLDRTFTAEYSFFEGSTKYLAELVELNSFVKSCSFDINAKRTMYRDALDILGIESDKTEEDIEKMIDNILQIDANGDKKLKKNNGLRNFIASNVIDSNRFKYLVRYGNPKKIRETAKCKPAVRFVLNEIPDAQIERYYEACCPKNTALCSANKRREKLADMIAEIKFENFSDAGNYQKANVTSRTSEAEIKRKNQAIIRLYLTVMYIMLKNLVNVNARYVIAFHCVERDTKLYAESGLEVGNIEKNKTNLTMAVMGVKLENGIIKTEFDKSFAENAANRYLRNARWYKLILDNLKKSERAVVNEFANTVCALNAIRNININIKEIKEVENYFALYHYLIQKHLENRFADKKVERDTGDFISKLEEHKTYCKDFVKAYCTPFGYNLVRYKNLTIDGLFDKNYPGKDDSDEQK

B1: target 2 MT 5'PFS GCG 3'PFS CGU (mixed)
RNA 1: CACCCGUGCAAAAUUGCAGGGGUCUAAAACCUUCUCCAAAUUGUUUCAUCCU
RNA 2: GGGAAUGGAUCCACAUCUACGAAUUCGCGAGGAUGAAACAAUUUGGAGAAGCGUAGAUCGGAAGAGCACACGU
B2: target 2 MT 5'PFS CUU 3'PFS CAU (mixed)
RNA 1: CACCCGUGCAAAAUUGCAGGGGUCUAAAACCUUCUCCAAAUUGUUUCAUCCU
RNA 2: GGGAAUGGAUCCACAUCUACGAAUUCCUUAGGAUGAAACAAUUUGGAGAAGCAUAGAUCGGAAGAGCACACGU
B3: target 2 MT 5'PFS UGC 3'PFS AGG (mixed)
RNA 1: CACCCGUGCAAAAUUGCAGGGGUCUAAAACCUUCUCCAAAUUGUUUCAUCCU
RNA 2: GGGAAUGGAUCCACAUCUACGAAUUCUGCAGGAUGAAACAAUUUGGAGAAGAGGAGAUCGGAAGAGCACACGU
B4: target 2 MT 5'PFS ACU 3'PFS UUU (mixed)
RNA 1: CACCCGUGCAAAAUUGCAGGGGUCUAAAACCUUCUCCAAAUUGUUUCAUCCU
RNA 2: GGGAAUGGAUCCACAUCUACGAAUUCACUAGGAUGAAACAAUUUGGAGAAGUUUAGAUCGGAAGAGCACACGU
B5: target 2 MT 5'PFS UUC 3'PFS CAA (mixed)
RNA 1: CACCCGUGCAAAAUUGCAGGGGUCUAAAACCUUCUCCAAAUUGUUUCAUCCU
RNA 2: GGGAAUGGAUCCACAUCUACGAAUUCUUCAGGAUGAAACAAUUUGGAGAAGCAAAGAUCGGAAGAGCACACGU
B6: target 2 MT 5'PFS CAU 3'PFS AUC (mixed)
RNA 1: CACCCGUGCAAAAUUGCAGGGGUCUAAAACCUUCUCCAAAUUGUUUCAUCCU
RNA 2: GGGAAUGGAUCCACAUCUACGAAUUCCAUAGGAUGAAACAAUUUGGAGAAGAUCAGAUCGGAAGAGCACACGU
B7: target 2 MT 5'PFS GAA 3'PFS CAG (mixed)
RNA 1: CACCCGUGCAAAAUUGCAGGGGUCUAAAACCUUCUCCAAAUUGUUUCAUCCU
RNA 2: GGGAAUGGAUCCACAUCUACGAAUUCGAAAGGAUGAAACAAUUUGGAGAAGCAGAGAUCGGAAGAGCACACGU
B8: target 2 MT 5'PFS CUU 3'PFS CAC (mixed)
RNA 1: CACCCGUGCAAAAUUGCAGGGGUCUAAAACCUUCUCCAAAUUGUUUCAUCCU
RNA 2: GGGAAUGGAUCCACAUCUACGAAUUCCUUAGGAUGAAACAAUUUGGAGAAGCACAGAUCGGAAGAGCACACGU
B9: target 2 MT 5'PFS CAU 3'PFS AUG (mixed)
RNA 1: CACCCGUGCAAAAUUGCAGGGGUCUAAAACCUUCUCCAAAUUGUUUCAUCCU
RNA 2: GGGAAUGGAUCCACAUCUACGAAUUCCAUAGGAUGAAACAAUUUGGAGAAGAUGAGAUCGGAAGAGCACACGU
B10: target 2 MT 5'PFS AAU 3'PFS ACA (mixed)
RNA 1: CACCCGUGCAAAAUUGCAGGGGUCUAAAACCUUCUCCAAAUUGUUUCAUCCU
RNA 2: GGGAAUGGAUCCACAUCUACGAAUUCAAUAGGAUGAAACAAUUUGGAGAAGACAAGAUCGGAAGAGCACACGU
B11: target 2 MT 5'PFS ACU 3'PFS UUC (mixed)
RNA 1: CACCCGUGCAAAAUUGCAGGGGUCUAAAACCUUCUCCAAAUUGUUUCAUCCU
RNA 2: GGGAAUGGAUCCACAUCUACGAAUUCACUAGGAUGAAACAAUUUGGAGAAGUUCAGAUCGGAAGAGCACACGU
B12: target 2 MT 5'PFS CUU 3'PFS CAG (mixed)
RNA 1: CACCCGUGCAAAAUUGCAGGGGUCUAAAACCUUCUCCAAAUUGUUUCAUCCU
RNA 2: GGGAAUGGAUCCACAUCUACGAAUUCCUUAGGAUGAAACAAUUUGGAGAAGCAGAGAUCGGAAGAGCACACGU
B13: target 2 MT 5'PFS CAG 3'PFS ACA (mixed)
RNA 1: CACCCGUGCAAAAUUGCAGGGGUCUAAAACCUUCUCCAAAUUGUUUCAUCCU
RNA 2: GGGAAUGGAUCCACAUCUACGAAUUCCAGAGGAUGAAACAAUUUGGAGAAGACAAGAUCGGAAGAGCACACGU
B14: target 2 MT 5'PFS GAA 3'PFS CAC (mixed)
RNA 1: CACCCGUGCAAAAUUGCAGGGGUCUAAAACCUUCUCCAAAUUGUUUCAUCCU
RNA 2: GGGAAUGGAUCCACAUCUACGAAUUCGAAAGGAUGAAACAAUUUGGAGAAGCACAGAUCGGAAGAGCACACGU
B15: target 2 MT 5'PFS UGC 3'PFS AGC (mixed)
RNA 1: CACCCGUGCAAAAUUGCAGGGGUCUAAAACCUUCUCCAAAUUGUUUCAUCCU
RNA 2: GGGAAUGGAUCCACAUCUACGAAUUCUGCAGGAUGAAACAAUUUGGAGAAGAGCAGAUCGGAAGAGCACACGU
B16: target 2 MT 5'PFS GCG 3'PFS CGA (mixed)
RNA 1: CACCCGUGCAAAAUUGCAGGGGUCUAAAACCUUCUCCAAAUUGUUUCAUCCU
RNA 2: GGGAAUGGAUCCACAUCUACGAAUUCGCGAGGAUGAAACAAUUUGGAGAAGCGAAGAUCGGAAGAGCACACGU
B17: target 2 MT 5'PFS UCA 3'PFS CUU (mixed)
RNA 1: CACCCGUGCAAAAUUGCAGGGGUCUAAAACCUUCUCCAAAUUGUUUCAUCCU
RNA 2: GGGAAUGGAUCCACAUCUACGAAUUCUCAAGGAUGAAACAAUUUGGAGAAGCUUAGAUCGGAAGAGCACACGU
B18: target 2 MT 5'PFS CAG 3'PFS ACG (mixed)
RNA 1: CACCCGUGCAAAAUUGCAGGGGUCUAAAACCUUCUCCAAAUUGUUUCAUCCU
RNA 2: GGGAAUGGAUCCACAUCUACGAAUUCCAGAGGAUGAAACAAUUUGGAGAAGACGAGAUCGGAAGAGCACACGU
B19: target 2 MT 5'PFS CAU 3'PFS AUU (mixed)
RNA 1: CACCCGUGCAAAAUUGCAGGGGUCUAAAACCUUCUCCAAAUUGUUUCAUCCU
RNA 2: GGGAAUGGAUCCACAUCUACGAAUUCCAUAGGAUGAAACAAUUUGGAGAAGAUUAGAUCGGAAGAGCACACGU
B20: target 2 MT 5'PFS UGC 3'PFS AGA (mixed)
RNA 1: CACCCGUGCAAAAUUGCAGGGGUCUAAAACCUUCUCCAAAUUGUUUCAUCCU
RNA 2: GGGAAUGGAUCCACAUCUACGAAUUCUGCAGGAUGAAACAAUUUGGAGAAGAGAAGAUCGGAAGAGCACACGU
B21: target 2 MT 5'PFS ACU 3'PFS UUG (mixed)
RNA 1: CACCCGUGCAAAAUUGCAGGGGUCUAAAACCUUCUCCAAAUUGUUUCAUCCU
RNA 2: GGGAAUGGAUCCACAUCUACGAAUUCACUAGGAUGAAACAAUUUGGAGAAGUUGAGAUCGGAAGAGCACACGU
B22: target 2 MT 5'PFS CUU 3'PFS CAA (mixed)
RNA 1: CACCCGUGCAAAAUUGCAGGGGUCUAAAACCUUCUCCAAAUUGUUUCAUCCU
RNA 2: GGGAAUGGAUCCACAUCUACGAAUUCCUUAGGAUGAAACAAUUUGGAGAAGCAAAGAUCGGAAGAGCACACGU
B23: target 2 MT 5'PFS CAU 3'PFS AUA (mixed)
RNA 1: CACCCGUGCAAAAUUGCAGGGGUCUAAAACCUUCUCCAAAUUGUUUCAUCCU
RNA 2: GGGAAUGGAUCCACAUCUACGAAUUCCAUAGGAUGAAACAAUUUGGAGAAGAUAAGAUCGGAAGAGCACACGU
B24: target 2 MT 5'PFS ACU 3'PFS UUA (mixed)
RNA 1: CACCCGUGCAAAAUUGCAGGGGUCUAAAACCUUCUCCAAAUUGUUUCAUCCU
RNA 2: GGGAAUGGAUCCACAUCUACGAAUUCACUAGGAUGAAACAAUUUGGAGAAGUUAAGAUCGGAAGAGCACACGU
B25: target 2 MT 5'PFS GAA 3'PFS CAA (mixed)
RNA 1: CACCCGUGCAAAAUUGCAGGGGUCUAAAACCUUCUCCAAAUUGUUUCAUCCU
RNA 2: GGGAAUGGAUCCACAUCUACGAAUUCGAAAGGAUGAAACAAUUUGGAGAAGCAAAGAUCGGAAGAGCACACGU
B26: target 1 insG 3' of 10,insC 3' of 8 (mixed)
RNA 1: CACCCGUGCAAAAAUGCAGGGGUCUAAAACUGAGCGGAUAACCUCUCUAUGG
RNA 2: GGGAAUGGAUCCACAUCUACGAAUUCGUACCAUAGAGAGGUUGAUCCCGCUCACCGAGAUCGGAAGAGCACACGU
B27: target 1 U10C,G12C (mixed)
RNA 1: CACCCGUGCAAAAAUGCAGGGGUCUAAAACUGAGCGGAUAACCUCUCUAUGG
RNA 2: GGGAAUGGAUCCACAUCUACGAAUUCGUACCAUAGAGAGCUCAUCCGCUCACCGAGAUCGGAAGAGCACACGU

The target of this series is T1, EsCas13d, nuclease-dead. The series can be described thus: crRNA (strand 1, pre-loaded); Mg2+; 40 mM Tris-HCl pH 7.5, 150 mM NaCl, 6 mM MgCl2, 1 mM DTT, 0.1% Tween-20, 0.2 mg/ml BSA; 25 C; 10 min per concentration, then washed. Particulars: tags: His6-TwinStrep-SUMO cleaved; N-terminal SNAP kept (SNAP-Surface 488); label: 3' end held by stalled T7 RNA polymerase.
B1 registered a Kd of 14.4 ± 3 nM. Molecule B2 showed a Kd of 4.1 ± 0.6 nM. Regarding B3, the Kd is roughly 60 nM.

B4 came in with a Kd of 6.4 ± 0.8 nM.

For B5, the Kd came out at 30 ± 6 nM. B6: the Kd came out at 3.3 ± 0.5 nM. B7 came in with a Kd of 6.6 ± 0.6 nM. Under B8 stands 3.41 ± 0.28 nM. B9 displayed a Kd of 4 ± 0.7 nM. The result for B10 reads 7.5 ± 1.3 nM; that for B11, 7.1 ± 2 nM; that for B12, 3.75 ± 0.3 nM. For the molecule B13, binding was put at a Kd of 5.3 ± 2.1 nM.

With B14, the Kd was 7 ± 1.5 nM. On to B15, for which the affinity, expressed as Kd, was 19.7 ± 1.9 nM. Turning to B16, the Kd came out at 30 ± 12 nM. As for B17, binding was put at a Kd of 5 ± 0.9 nM.

For the molecule B18, the affinity, expressed as Kd, was 5.8 ± 2.8 nM. As for B19, binding was put at a Kd of 4.1 ± 0.6 nM.

With B20, binding was characterised by a dissociation constant (Kd) of 26 ± 9 nM. For the molecule B21, the Kd amounted to 7 ± 1 nM. Under B22 stands 2.9 ± 0.4 nM; under B23, 3.31 ± 0.27 nM. B24 displayed a Kd of 9.4 ± 2.2 nM.

The molecule B25 registered a Kd of 4.9 ± 0.7 nM. The result for B26 reads 27.8 ± 1.9 nM; that for B27, 71 ± 27 nM.

The values are drawn from publication PMC10786891, “Massively parallel profiling of RNA-targeting CRISPR-Cas13d”.
